According to paper PMC7337384:
pKd: −log10 of the molar value.

Target: SARS-CoV-2 S-protein receptor-binding domain fused to the Fc domain of human IgG1 (SARS-CoV-2) (UniProt P0DTC2)
Assay: SPR

soluble monomeric R. macrotis ACE2 (domain or fragment)
pKd: 5.34
